One block for each molecule: values may come before it.
Tests used:
Assay type in all cases: biochemical
pEY = assay: In vitro kinase library screen: activity towards pEY; conditions: 5 ul of expressed protein
Summary of the method: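 Kinases made by in vitro transcription/translation, immobilised on streptavidin/avidin plates and washed with Tris/Triton and high-salt buffers. Incubated overnight at room temperature with 5 nM pEY, 100 µM ATP, Mg2+/Mn2+ and vanadate at pH 7.4. Phospho-pEY captured with biotinylated PY20 and detected by Sulfo-TAG anti-phosphotyrosine ECL.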

[1] = test system: autophosphorylation (phosphotyrosine); assay: In vitro kinase library screen: autophosphorylation
Summary of the method: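 Biotinylated SYK and EphA7 from in vitro transcription/translation, immobilized on streptavidin/avidin plates; autophosphorylation overnight at room temperature with 5 mM MgCl2, 5 mM MnCl2, 100 μM ATP, pH 7.4. Phosphotyrosine detected by Sulfo-TAG anti-phosphotyrosine (45 min) and ECL read-out.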

pEY (poly Glu-Tyr) = assay: Tyrosine kinase activity assay of immobilized in vitro translated protein towards pEY
Method: Proteins were produced in an in vitro transcription and translation reaction. […] The unbound components of the reaction containing endogenous kinases were removed by three washes with TT-buffer (25 mM Tris-HCl buffer pH 7.4 and 0.004% Triton), two five minutes washings with high-salt wash buffer (25 mM Tris-HCl buffer pH 7.4, 0.004% Triton, 1M NaCl and 5 mM DTT) and 3 more washes with TT-buffer. To these immobilized and purified proteins a tyrosine kinase substrate, 5 nM pEY (poly Glu-Tyr, Sigma, MO), was added in a 50 μl reaction solution containing 5 mM MgCl2, 5 mM MnCl2, 100 μM ATP, 25 mM Tris-HCl buffer pH 7.4, 0.05 mM Na3VO4, 0.004% TritonX-100, 2 mM DTT and EDTA-free protease inhibitor (Roche Molecular Biochemicals). This mixture was incubated with shaking at room temperature overnight to allow phosphorylation of the pEY substrate by the immobilized kinases. Following this incubation, 45 μl of this mixture was transferred to a streptavidin or avidin-coated NPT IPR plate coated with biotinylated anti-phosphotyrosine antibody (PY20, Zymed labs, CA) followed by incubation for 30 minutes at room temperature to allow the binding of the phosphorylated pEY substrate to the PY20 coated NPT plate. Following this binding step, 50 ng Sulfo-TAG labeled anti-phosphotyrosine in buffer containing 25 mM Tris-HCl buffer pH 7.4, 5 mM MgCl2, 0.05 mM Na3VO4, 0.004% TritonX-100, 2 mM DTT and 0.05% IgG was added followed by incubation at room temperature for 30 mm. The unbound reagents were removed by one time washing with water, and the TAG label was detected in presence of 150 μl IPR assay buffer (0.4 mM Gly-Gly buffer, pH 7.8, 1 mM EDTA, 0.1 M TPA). The ECL signals were measured using an imaging plate reader.

B1: 2644960: IMAGE clone protein: Kit, kit oncogene (protein, UniProt P05532 25-979, looked up)
Mast/stem cell growth factor …: SQPSASPGEPSPPSIHPAQSELIVEAGDTLSLTCIDPDFVRWTFKTYFNEMVENKKNEWIQEKAEATRTGTYTCSNSNGLTSSIYVFVRDPAKLFLVGLPLFGKEDSDALVRCPLTDPQVSNYSLIECDGKSLPTDLTFVPNPKAGITIKNVKRAYHRLCVRCAAQRDGTWLHSDKFTLKVRAAIKAIPVVSVPETSHLLKKGDTFTVVCTIKDVSTSVNSMWLKMNPQPQHIAQVKHNSWHRGDFNYERQETLTISSARVDDSGVFMCYANNTFGSANVTTTLKVVEKGFINISPVKNTTVFVTDGENVDLVVEYEAYPKPEHQQWIYMNRTSANKGKDYVKSDNKSNIRYVNQLRLTRLKGTEGGTYTFLVSNSDASASVTFNVYVNTKPEILTYDRLINGMLQCVAEGFPEPTIDWYFCTGAEQRCTTPVSPVDVQVQNVSVSPFGKLVVQSSIDSSVFRHNGTVECKASNDVGKSSAFFNFAFKGNNKEQIQAHTLFTPLLIGFVVAAGAMGIIVMVLTYKYLQKPMYEVQWKVVEEINGNNYVYIDPTQLPYDHKWEFPRNRLSFGKTLGAGAFGKVVEATAYGLIKSDAAMTVAVKMLKPSAHLTEREALMSELKVLSYLGNHMNIVNLLGACTVGGPTLVITEYCCYGDLLNFLRRKRDSFIFSKQEEQAEAALYKNLLHSTEPSCDSSNEYMDMKPGVSYVVPTKTDKRRSARIDSYIERDVTPAIMEDDELALDLDDLLSFSYQVAKGMAFLASKNCIHRDLAARNILLTHGRITKICDFGLARDIRNDSNYVVKGNARLPVKWMAPESIFSCVYTFESDVWSYGIFLWELFSLGSSPYPGMPVDSKFYKMIKEGFRMVSPEHAPAEMYDVMKTCWDADPLKRPTFKQVVQLIEKQISDSTKHIYSNLANCNPNPENPVVVDHSVRVNSVGSSASSTQPLLVHEDA
HTS signal (pEY): 9,164 | ECL signal [1]: 88,966

B2: 2654352: IMAGE clone protein: Fgfr2, fibroblast growth factor receptor 2 (protein, UniProt P21803 22-821, looked up)
Fibroblast growth factor …: RPSFSLVEDTTLEPEEPPTKYQISQPEAYVVAPGESLELQCMLKDAAVISWTKDGVHLGPNNRTVLIGEYLQIKGATPRDSGLYACTAARTVDSETWIFMVNVTDAISSGDDEDDTDSSEDVVSENRSNQRAPYWTNTEKMEKRLHACPAANTVKFRCPAGGNPTSTMRWLKNGKEFKQEHRIGGYKVRNQHWSLIMESVVPSDKGNYTCLVENEYGSINHTYHLDVVERSPHRPILQAGLPANASTVVGGDVEFVCKVYSDAQPHIQWIKHVEKNGSKNGPDGLPYLKVLKAAGVNTTDKEIEVLYIRNVTFEDAGEYTCLAGNSIGISFHSAWLTVLPAPVREKEITASPDYLEIAIYCIGVFLIACMVVTVIFCRMKTTTKKPDFSSQPAVHKLTKRIPLRRQVTVSAESSSSMNSNTPLVRITTRLSSTADTPMLAGVSEYELPEDPKWEFPRDKLTLGKPLGEGCFGQVVMAEAVGIDKDKPKEAVTVAVKMLKDDATEKDLSDLVSEMEMMKMIGKHKNIINLLGACTQDGPLYVIVEYASKGNLREYLRARRPPGMEYSYDINRVPEEQMTFKDLVSCTYQLARGMEYLASQKCIHRDLAARNVLVTENNVMKIADFGLARDINNIDYYKKTTNGRLPVKWMAPEALFDRVYTHQSDVWSFGVLMWEIFTLGGSPYPGIPVEELFKLLKEGHRMDKPTNCTNELYMMMRDCWHAVPSQRPTFKQLVEDLDRILTLTTNEEYLDLTQPLEQYSPSYPDTSSSCSSGDDSVFSPDPMPYEPCLPQYPHINGSVKT
HTS signal (pEY): 296,481 | ECL signal [1]: 180,059

Now from value to molecule:

HTS signal (pEY): 10,287 | ECL signal [1]: 84,706
B3: 3482498: IMAGE clone protein: Tek, endothelial-specific receptor tyrosine kinase (protein, UniProt Q02858 23-1122, looked up)
Angiopoietin-1 receptor: AMDLILINSLPLVSDAETSLTCIASGWHPHEPITIGRDFEALMNQHQDPLEVTQDVTREWAKKVVWKREKASKINGAYFCEGRVRGQAIRIRTMKMRQQASFLPATLTMTVDRGDNVNISFKKVLIKEEDAVIYKNGSFIHSVPRHEVPDILEVHLPHAQPQDAGVYSARYIGGNLFTSAFTRLIVRRCEAQKWGPDCSRPCTTCKNNGVCHEDTGECICPPGFMGRTCEKACEPHTFGRTCKERCSGPEGCKSYVFCLPDPYGCSCATGWRGLQCNEACPSGYYGPDCKLRCHCTNEEICDRFQGCLCSQGWQGLQCEKEGRPRMTPQIEDLPDHIEVNSGKFNPICKASGWPLPTSEEMTLVKPDGTVLQPNDFNYTDRFSVAIFTVNRVLPPDSGVWVCSVNTVAGMVEKPFNISVKVLPEPLHAPNVIDTGHNFAIINISSEPYFGDGPIKSKKLFYKPVNQAWKYIEVTNEIFTLNYLEPRTDYELCVQLARPGEGGEGHPGPVRRFTTASIGLPPPRGLSLLPKSQTALNLTWQPIFTNSEDEFYVEVERRSLQTTSDQQNIKVPGNLTSVLLSNLVPREQYTVRARVNTKAQGEWSEELRAWTLSDILPPQPENIKISNITDSTAMVSWTIVDGYSISSIIIRYKVQGKNEDQHIDVKIKNATVTQYQLKGLEPETTYHVDIFAENNIGSSNPAFSHELRTLPHSPASADLGGGKMLLIAILGSAGMTCITVLLAFLIMLQLKRANVQRRMAQAFQNREEPAVQFNSGTLALNRKAKNNPDPTIYPVLDWNDIKFQDVIGEGNFGQVLKARIKKDGLRMDAAIKRMKEYASKDDHRDFAGELEVLCKLGHHPNIINLLGACEHRGYLYLAIEYAPHGNLLDFLRKSRVLETDPAFAIANSTASTLSSQQLLHFAADVARGMDYLSQKQFIHRDLAARNILVGENYIAKIADFGLSRGQEVYVKKTMGRLPVRWMAIESLNYSVYTTNSDVWSYGVLLWEIVSLGGTPYCGMTCAELYEKLPQGYRLEKPLNCDDEVYDLMRQCWREKPYERPSFAQILVSLNRMLEERKTYVNTTLYEKFTYAGIDCSAEEAA

fold higher ECL signal than background produced by Mock (Luciferase) (pEY (poly Glu-Tyr); 0.5 to 1 μl of TnT reaction): 1000 to 1100 fold | ECL signal (pEY (poly Glu-Tyr); +EDTA): 1,287 | ECL signal (pEY (poly Glu-Tyr); Control (Table 9)): 1,637,307 | ECL signal (pEY (poly Glu-Tyr); DNA 0.001 μg/5 μl): 4,432 | ECL signal (pEY (poly Glu-Tyr); DNA 0.003 μg/5 μl): 129,797 | ECL signal (pEY (poly Glu-Tyr); DNA 0.010 μg/5 μl): 1,440,103 | ECL signal (pEY (poly Glu-Tyr); DNA 0.020 μg/5 μl): 1,463,489 | ECL signal (pEY (poly Glu-Tyr); DNA 0.040 μg/5 μl): 1,523,121 | ECL signal (pEY (poly Glu-Tyr); DNA 0.060 μg/5 μl): 1,553,370 | ECL signal (pEY (poly Glu-Tyr); DNA 0.080 μg/5 μl): 1,608,671 | ECL signal (pEY (poly Glu-Tyr); DNA 0.100 μg/5 μl): 1,687,039 | ECL signal (pEY (poly Glu-Tyr); DNA 0.125 μg/5 μl): 1,626,868 | ECL signal (pEY (poly Glu-Tyr); complete reaction): 1,608,671 | ECL signal (pEY (poly Glu-Tyr); no Mg, no Mn): 2,851 | ECL signal (pEY (poly Glu-Tyr); plasmid +, no pEY): 1,309 | ECL signal (pEY (poly Glu-Tyr); plasmid +, no tRNA): 1,752 | HTS signal (pEY): 952,661 | ECL signal [1]: 1,350,546
B4: 4485050: IMAGE clone protein: Fert2, fer (fms/fps related) protein kinase, testis specific 2 (protein, UniProt P70451 1-823, looked up)
Tyrosine-protein kinase Fer: MGFGSDLKNSQEAVLKLQDWELRLLETVKKFMALRIKSDKEYAYTLQNLCNQVDKESTVQVNYVSNVSKSWLLMIQQTEQLSRIMKTHAEDLNSGPLHRLTMMIKDKQQVKKSYVGIHQQIEAEMIKVTKTELEKLKSSYRQLIKEMNSAKEKYKEALAKGKETEKAKERYDKATMKLHMLHNQYVLALKGAQLHQSQYYDTTLPLLLDSVQKMQEEMIKALKGIFDDYSQITSLVTEEIVNVHKEIQMSVEQIDPSTEYNNFIDVHRTTAAKEQEIEFDTSLLEENENLQANEIMWNNLTADSLQVMLKTLAEELTQTQQMLLHKEAAVLELEKRIEESFETCEKKSDIVLLLGQKQALEELKQSVQQLRCTEAKCAAQKALLEQKVQENDGKEPPPVVNYEEDARSVTSMERKERLSKFESIRHSIAGIIKSPKSVLGSSTQVCDVISVGERPLAEHDWYHGAIPRIEAQELLKQQGDFLVRESHGKPGEYVLSVYSDGQRRHFIIQFVDNLYRFEGTGFSNIPQLIDHHFNTKQVITKKSGVVLLNPIPKDKKWVLNHEDVSLGELLGKGNFGEVYKGTLKDKTPVAIKTCKEDLPQELKIKFLQEAKILKQYDHPNIVKLIGVCTQRQPVYIIMELVPGGDFLTFLRKRKDELKLKQLVRFSLDVAAGMLYLESKNCIHRDLAARNCLVGENNTLKISDFGMSRQEDGGVYSSSGLKQIPIKWTAPEALNYGRYSSESDVWSFGILLWETFSLGVCPYPGMTNQQAREQVERGYRMSAPQNCPEEVFTIMMKCWDYKPENRPKFNDLHKELTVIKKMIT

— patent publication US7063946B2, “Methods, reagents, kits and apparatus for protein function analysis” (Meso Scale Technologies, LLC., priority 2001, dated 2006)
